This note sets out measurements from the supplement of paper PMC12042874.

± gives the uncertainty stated by the source.

This series can be described thus: amyloid nucleation score (Sup35N fusion, yeast selection) (log enrichment); library NNK1; higher = more nucleation; inactive = no reads after selection. The method, boiled down: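 The nucleation score, computed with DiMSum, is the log enrichment of output over input reads, centred on the mode score of non-aggregating sequences. Sequences with under 100 input reads were dropped. Reads were generated by Illumina sequencing of plasmid inserts from psi-negative yeast with Sup35N fused to peptides of 20 random codons, induced with 100 μM copper sulfate for 24 hours and grown 7 days at 30°C on medium lacking adenine and uracil.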
As for RIRIFNKKSGMGQRWILVEG, the amyloid nucleation score was -0.006 ± 0.73. Regarding GTCYGCLLILVCSLFGSTTG, the amyloid nucleation score came out at 1.12 ± 0.66. Take TLIWSCARHWV: the amyloid nucleation score came to 1.44 ± 0.22. Then THLVTCKGGLSMPDLVYRHV, with 0.183 ± 0.28; and LTWHRLSISHTVAYLSTDSI, with “inactive”; and VGPRGSGPWGGVCLCGCSKE, with 1.11 ± 0.51. In turn, DRHRLPILVFLITNRTQRMV yielded an amyloid nucleation score of -0.098 ± 1.3. Substance WVVIR returned an amyloid nucleation score of -0.369 ± 1.5. VECVSVQRFGAQCLSCYPSW displayed an amyloid nucleation score of -0.07 ± 0.55. As to RSNEIVEFGSPWYKMTKGMR, the amyloid nucleation score amounted to 0.44 ± 0.31.

For DVTLVNFIG, the amyloid nucleation score turned out to be 0.285 ± 0.48.

For the substance RLWNSRWFPGNLNCWVKLEW, the amyloid nucleation score came out at 0.044 ± 1.1. The substance IYAGHRQHGAV gave an amyloid nucleation score of -0.386 ± 0.55. Then SFVVHVICGHVCSWSFSVWF, with 0.178 ± 0.33; and TVVTYVRNNFKEVHSCVEVS, with -0.607 ± 0.47; and AFLLEMKTKAATPRCYLRDM, with 0.532 ± 0.85. Substance QMIMAMNSFLISYLNHMWPG had an amyloid nucleation score of 2.13 ± 0.1. The substance AYSRNYYQYAVNEFGDVVFE yielded an amyloid nucleation score of 0.312 ± 1.1. In the case of VCHAVRISISSSASTLAE it was -0.122 ± 0.33. In the case of FMCVGSYDPYPWP it was 0.659 ± 0.51; in that of LSGPLNGEDFHRIFQVDFRW, 0.244 ± 0.79. For the substance RDFYNCS, the amyloid nucleation score is 0.166 ± 0.26. QLLAVMWKGHHVYRELCGRL had an amyloid nucleation score of -0.549 ± 0.46.

In turn, LLVESKAYGWHVMRGQTWTR displayed an amyloid nucleation score of -0.045 ± 0.42. ISWVPDAVNFFACMHW gave an amyloid nucleation score of 0.094 ± 0.51. Take FRFSGHWGETIASRTG: the amyloid nucleation score was found to be 0.376 ± 0.95.

Take YKLKFIRGACHSS: the amyloid nucleation score was 0.9 ± 0.63.

For the substance LMWNLTLS, the amyloid nucleation score is 0.949 ± 0.97. The substance TDCSSLC displayed an amyloid nucleation score of -0.373 ± 0.31. The substance LRSIRVPP had an amyloid nucleation score of -0.005 ± 0.32. With YLLCMGMVFSIGKFSSIPCP, the amyloid nucleation score entry is “inactive”. Take WMTHWVLSYTTNLLIWVHGW: the amyloid nucleation score is 0.005 ± 1.2. The substance VGHSEIKMTMTRLADLGVCE returned an amyloid nucleation score of 0.612 ± 0.62. Then GLYSTGNFDVGRSLCDHMGS, with -0.492 ± 1.1; and SFANVGSVGWAMYSGYTSRT, with 0.002 ± 0.84.

YNVMYTFLHFAIGTAISRTW returned an amyloid nucleation score of -0.798 ± 0.76.

QCSSANTSGIAETSTSLGRT showed an amyloid nucleation score of -0.244 ± 1.1. Then FIGPRN, with -1.05 ± 1.2; and AYLADCFPDVSTNWVRAISA, with -0.337 ± 0.29; and LFFVPMARVW, with 0.01 ± 0.54. SRRCLLKNISSPCF yielded an amyloid nucleation score of -1.82 ± 0.87.

The substance LLSTHVMQVLPMNQAKNILK had an amyloid nucleation score of -0.935 ± 0.29. As for VGHYGRETHLCSWCQIANGA, the amyloid nucleation score entry is “inactive”. For the substance GNMSPFKNLTFAEQLDAPRD, the amyloid nucleation score amounted to 0.016 ± 1.2. LITLAFVVSCVSYSRGSKRW gave an amyloid nucleation score of 1.31 ± 0.23. For CPMWYYCRSVLSSLAVSDCS, the amyloid nucleation score entry is “inactive”. On to HRILVGGFRSCVMT, for which the amyloid nucleation score came to 0.311 ± 0.32.

Take ASFSLDYSFQMPYILRWFIR: the amyloid nucleation score is 1.03 ± 0.33. Turning to STVFNGSGGEDVKKCPPHA, the amyloid nucleation score result was “inactive”. On to YSDCDGTMCYVDAYMCGYMA, for which the amyloid nucleation score came out at 3.46 ± 0.077.

With TTLNEELYSLVVSRDWGDSN, the amyloid nucleation score result is “inactive”. Consider WSRTNMIYNPSVGAIYRV, for which the amyloid nucleation score is -0.021 ± 0.41. On to GCDYARPINWCDTPYGSFNL, for which the amyloid nucleation score was -2.49 ± 2.4. Then RRGRLYSKLCLCRF, with 0.874 ± 0.92. With WYEWSPFSSTWRSSIVLFNL, the amyloid nucleation score is 0.417 ± 0.56.

For the substance IFIFYGTRGSFRLRVAY, the amyloid nucleation score is 2.72 ± 0.24.

PGVPPPKRA gave an amyloid nucleation score of 0.294 ± 0.66. Regarding PLYGASDK, the amyloid nucleation score is -0.277 ± 0.97. Turning to SSDFY, the amyloid nucleation score is -1.46 ± 1.3. RCVETSFTSGFIVGELLMRM gave an amyloid nucleation score of -0.84 ± 1.3. As for VRRGTVFAVGTCYIGRWFAV, the amyloid nucleation score was found to be 1.21 ± 0.97. As for LGSNNWVFGYGR, the amyloid nucleation score entry is “inactive”. In the case of VEFYRYFGWCPNYLPQHQWL, the amyloid nucleation score was -0.148 ± 0.56. Substance GMDCH registered an amyloid nucleation score of -0.175 ± 0.25. In the case of SRIFRKLHYSTWIQMRGLCP it was -0.431 ± 0.28; in that of ASRYGSLVPRVVKHLMTRGN, -1 ± 0.67. Substance LVMCFVMGMLNLDAGLIMRM registered an amyloid nucleation score of 0.425 ± 0.37. LCLDVLSGLCYFYLQ came in with an amyloid nucleation score of 0.622 ± 0.59. In the case of TVNYTCYYGYIIFGYASSVK it was 3.63 ± 0.076; in that of MCLFENMFDHFSGSLQSHGG, 0.318 ± 0.27; in that of VIKDFNDNYTGFRHYSKILI, -0.634 ± 1.7. Then SSIALYFGWLGSIR, with 0.294 ± 0.85. TDYIHLSIMIDFLGFTFQDR had an amyloid nucleation score of 1.46 ± 0.43. In the case of FGSSPRSDVVKHQNINEEVI it was 0.581 ± 0.61; in that of NSIHFCGGGRLHSAKLDVSS, “inactive”; in that of FTRDVYRWKYPNYLVKYSTP, -0.199 ± 0.85. In the case of GESCLDSRFRNDDNR, the amyloid nucleation score is 0.09 ± 0.33. WTSMGTHTFSVRNRSGPHNG gave an amyloid nucleation score of 1.22 ± 0.62. Regarding YPCHSREMHYCREWVRDLST, the amyloid nucleation score was -0.396 ± 0.62. RCSLPLWFQYYGAMTVHGTV: the amyloid nucleation score worked out at 0.61 ± 0.35. SRATVSFVSLGNLTFGTILC gave an amyloid nucleation score of 1.72 ± 0.36. Substance GKTRK returned an amyloid nucleation score of -0.782 ± 1.7. The substance LSSAGYQFMFLSSFLGWEVN returned an amyloid nucleation score of -0.492 ± 0.44.

As to DIYRRSVGGRWLRLFSRRVV, the amyloid nucleation score was 0.209 ± 0.39. LRVYGGFLSMSCMRQRDGTV registered an amyloid nucleation score of 0.151 ± 0.39. The substance FFHFTVSGMPGYSRSY yielded an amyloid nucleation score of 2.73 ± 0.17. The substance FCAEEGVTRLNPKL returned an amyloid nucleation score of -0.023 ± 0.47. Substance RLFRTLGSDRGLFKEYF registered an amyloid nucleation score of 0.734 ± 0.84.

FENIDLP had an amyloid nucleation score of -0.364 ± 0.62. FSCYM registered an amyloid nucleation score of 0.245 ± 0.9. In the case of PYLGNLNSLQGFYLS it was 0.176 ± 0.78; in that of YFGSLYERGRIIGRRVMR, 0.267 ± 0.32. Then RFAAFIEQGFTTKK, with 1.87 ± 0.14; and CPLRIIQLMCTNRGLMGRLG, with -0.071 ± 0.31; and HVNSFKLGNGSFHFWY, with 0.634 ± 0.38. With VEWASRDTHWRSLSLIIYLG, the amyloid nucleation score result was “inactive”. With VFDAKGLNAHFNEVNVVYIR, the amyloid nucleation score is 4.77 ± 0.062. Regarding TVHVGTVPKFSYRFGIMGTE, the amyloid nucleation score is -0.482 ± 0.66.

Substance TQSTLGSMTIASDYCTTE returned an amyloid nucleation score of 1.42 ± 0.34. In turn, TVSMSMAYHVK gave an amyloid nucleation score of 2.27 ± 0.25.

GNVYVKISVTVFADDYVLRV had an amyloid nucleation score of 3.81 ± 0.11. With VQAAGYITLATVALWSTSMQ, the amyloid nucleation score worked out at 2.02 ± 0.31. On to VKTINFISQLSCWCKRPFRK, for which the amyloid nucleation score is 8.673 ± 0.06.

For NVGVMGFISASVWLFCWGIF, the amyloid nucleation score is -0.783 ± 0.33. In the case of NRHVSRRRHSEISLVRKGGA, the amyloid nucleation score was -0.313 ± 0.33. As for MSNRISLQQLDRCQDDFMA, the amyloid nucleation score amounted to 0.034 ± 0.38. Take CIYIWCGVFGSYFGFLVLAA: the amyloid nucleation score was 0.18 ± 0.49. In turn, RSMACVRLFDFQSQLYFRVF showed an amyloid nucleation score of -0.186 ± 0.77.

Substance RLPLHHTCYVIC had an amyloid nucleation score of 0.468 ± 1.2. Then NIWVLTYCLVYLSWSNHVF, with -0.709 ± 0.78; and TYWNVLNAVGQALPSIYGIG, with 0.955 ± 0.63; and RSIMWNLFHDF, with 0.789 ± 0.51.

The substance GYENGDGDERD returned an amyloid nucleation score of -0.403 ± 1.2. Then THFVLE, with 0.53 ± 0.28; and NSGNICSVGCGL, with 3.09 ± 0.2; and NESRM, with 1.08 ± 0.58. Regarding WKFALSLTRSDWAGHGPGHE, the amyloid nucleation score came to 2.02 ± 0.16. On to YCLQRQRRKGRSRSSMPEDE, for which the amyloid nucleation score was 1.52 ± 0.52. In the case of PYKIEWLSRTHTAGSYSLQP, the amyloid nucleation score is -0.135 ± 0.44. Then WREGDI, with -0.294 ± 1.2; and LIDRHSFVRGRIRVSSVVVC, with “inactive”.

The substance SYKLAVIRKM yielded an amyloid nucleation score of -0.28 ± 0.24. Substance TASIDEQHHWTRQY registered an amyloid nucleation score of 0.32 ± 0.36.

Take YENHGISDLSCIFTPYKV: the amyloid nucleation score result was “inactive”. On to FPWSGAWMD, for which the amyloid nucleation score was determined as 0.029 ± 1. Turning to SNLLTCPKYFVVTFFCL, the amyloid nucleation score was 0.211 ± 0.26. Then IIIYRNYALMEYDVGRV, with 0.75 ± 0.76; and IINMGTYRSTMLNILLKEKC, with 2.88 ± 0.27. Consider HMTLCRRGFISGQADYFVQ, for which the amyloid nucleation score turned out to be 0.275 ± 1.2. With LCAFMSYLSSIFSRYNCFYV, the amyloid nucleation score worked out at 0.268 ± 0.19. The substance YVDIPVVVS yielded an amyloid nucleation score of 0.235 ± 0.32. LHVRVCMYADMLSFYGSFAY showed an amyloid nucleation score of 2.68 ± 0.085.

In the case of LGCLQLITSERGPDYYKVAT, the amyloid nucleation score worked out at 0.218 ± 0.41. The substance NDVPLLWVISASCG came in with an amyloid nucleation score of 1.02 ± 0.44. Then TPSTQLALWAIYFHRRLFES, with -0.54 ± 1.3; and TFTDS, with 0.176 ± 0.75. In the case of MRNYGILFPYLFYMSVSRVL, the amyloid nucleation score is -0.067 ± 1.7. On to RYVLFALWWYKVGAEIYNKV, for which the amyloid nucleation score came out at 0.48 ± 0.69. As to PLTFSCSLGKGFTWYFCLNV, the amyloid nucleation score is -0.196 ± 0.45. Then SRLIY, with -0.894 ± 0.4.
